Test results as given in article PMC11315929, “A novel role for the peptidyl-prolyl cis-trans isomerase Cyclophilin A in DNA-repair following replication fork stalling via the MRE11-RAD50-NBS1 complex” (EMBO Reports, 2024).

Target: T1, recombinant human Strep-tagged CYPA (human, UniProt P62937 1-165)
T1 construct: Cyclophilin A (CYPA, PPIA), human; The methods also call such proteins Streptavidin-tagged; also called CYPA-Strep; source: E. coli BL21(DE3), purified (Strep-Tactin Superflow Plus cartridge, PD10 desalting)
Test: pull-down; recombinant Strep-tagged CYPA and HIS-tagged FHA-BRCT1 combined, 30 min 4 °C; MagStrep type3 XT beads 1 h 4 °C in 100 mM Tris-Cl pH 8, 150 mM NaCl, 1 mM EDTA, 0.5 mg/ml BSA; elution with 50 mM biotin; western blot; beads alone as control
Conditions: both partners purified

T1 sequence (P62937 whole entry): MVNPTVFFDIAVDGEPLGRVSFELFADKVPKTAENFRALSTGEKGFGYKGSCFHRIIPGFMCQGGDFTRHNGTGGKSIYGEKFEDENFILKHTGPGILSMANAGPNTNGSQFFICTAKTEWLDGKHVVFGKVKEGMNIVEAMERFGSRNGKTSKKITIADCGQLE

- binding result: binds
B1: recombinant HIS-tagged human NBS1 peptide composed of FHA-linker-BRCT1 (aa 1-182), wild type (domain or fragment, UniProt O60934 1-182, looked up)
chain: MWKLLPAAGPAGGEPYRLLTGVEYVVGRKNCAILIENDQSISRNHAVLTANFSVTNLSQTDEIPVLTLKDNSKYGTFVNEEKMQNGFSRTLKSGDGITFGVFGSKFRIEYEPLVACSSCLDVSGKTALNQAILQLGGFTVNNWTEECTHLVMVSVKVTIKTICALICGRPIVKPEYFTEFLK
notes: NBS1 (nibrin), human, UniProt O60934, FHA-linker-BRCT1, aa 1-182; also called WT HIS-tagged FHA-BRCT1; NBS1 FHA-BRCT1 peptide; source: E. coli BL21(DE3), purified (HiTrap TALON Crude, PD10 desalting)
